Data: PMC7610691 (Nature structural & molecular biology, 2020)

Assays:
[1] = molecular target: T1, Smc2 (S. cerevisiae condensin subunit) (S. cerevisiae, UniProt P38989 1-1170); test: cryo-EM structure
T1 sequence: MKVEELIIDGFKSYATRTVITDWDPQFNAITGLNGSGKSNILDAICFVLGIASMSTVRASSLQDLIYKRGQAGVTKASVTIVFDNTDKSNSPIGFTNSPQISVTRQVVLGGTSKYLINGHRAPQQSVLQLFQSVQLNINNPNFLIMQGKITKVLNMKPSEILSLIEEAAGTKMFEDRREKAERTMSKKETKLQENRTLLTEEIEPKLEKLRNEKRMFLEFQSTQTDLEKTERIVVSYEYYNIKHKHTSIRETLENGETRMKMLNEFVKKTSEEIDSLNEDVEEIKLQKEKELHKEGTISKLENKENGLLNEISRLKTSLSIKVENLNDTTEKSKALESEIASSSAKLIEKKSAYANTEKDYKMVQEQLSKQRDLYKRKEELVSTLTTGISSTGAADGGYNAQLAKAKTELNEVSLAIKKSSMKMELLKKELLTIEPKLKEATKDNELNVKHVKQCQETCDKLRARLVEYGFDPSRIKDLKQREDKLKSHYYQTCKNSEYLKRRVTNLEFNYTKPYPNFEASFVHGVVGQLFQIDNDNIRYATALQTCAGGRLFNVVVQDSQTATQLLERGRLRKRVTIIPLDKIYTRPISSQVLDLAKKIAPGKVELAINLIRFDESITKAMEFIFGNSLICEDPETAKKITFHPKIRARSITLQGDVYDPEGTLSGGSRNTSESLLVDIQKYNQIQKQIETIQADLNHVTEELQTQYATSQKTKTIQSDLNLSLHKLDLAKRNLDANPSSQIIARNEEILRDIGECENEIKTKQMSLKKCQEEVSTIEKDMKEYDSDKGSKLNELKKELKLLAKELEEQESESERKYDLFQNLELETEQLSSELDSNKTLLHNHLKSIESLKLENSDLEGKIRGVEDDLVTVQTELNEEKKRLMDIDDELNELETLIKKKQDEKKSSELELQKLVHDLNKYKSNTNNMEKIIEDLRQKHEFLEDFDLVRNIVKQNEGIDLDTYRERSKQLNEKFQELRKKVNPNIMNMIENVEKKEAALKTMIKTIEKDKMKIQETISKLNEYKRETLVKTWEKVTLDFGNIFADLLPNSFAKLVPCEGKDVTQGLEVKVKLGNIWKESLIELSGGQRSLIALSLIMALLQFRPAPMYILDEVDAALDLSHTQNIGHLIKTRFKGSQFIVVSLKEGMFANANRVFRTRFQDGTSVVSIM

[2] = molecular target: T2, Ycs4 (S. cerevisiae condensin HEAT-repeat subunit) (S. cerevisiae, UniProt Q06156 1-1176); test: cryo-EM structure
T2 sequence: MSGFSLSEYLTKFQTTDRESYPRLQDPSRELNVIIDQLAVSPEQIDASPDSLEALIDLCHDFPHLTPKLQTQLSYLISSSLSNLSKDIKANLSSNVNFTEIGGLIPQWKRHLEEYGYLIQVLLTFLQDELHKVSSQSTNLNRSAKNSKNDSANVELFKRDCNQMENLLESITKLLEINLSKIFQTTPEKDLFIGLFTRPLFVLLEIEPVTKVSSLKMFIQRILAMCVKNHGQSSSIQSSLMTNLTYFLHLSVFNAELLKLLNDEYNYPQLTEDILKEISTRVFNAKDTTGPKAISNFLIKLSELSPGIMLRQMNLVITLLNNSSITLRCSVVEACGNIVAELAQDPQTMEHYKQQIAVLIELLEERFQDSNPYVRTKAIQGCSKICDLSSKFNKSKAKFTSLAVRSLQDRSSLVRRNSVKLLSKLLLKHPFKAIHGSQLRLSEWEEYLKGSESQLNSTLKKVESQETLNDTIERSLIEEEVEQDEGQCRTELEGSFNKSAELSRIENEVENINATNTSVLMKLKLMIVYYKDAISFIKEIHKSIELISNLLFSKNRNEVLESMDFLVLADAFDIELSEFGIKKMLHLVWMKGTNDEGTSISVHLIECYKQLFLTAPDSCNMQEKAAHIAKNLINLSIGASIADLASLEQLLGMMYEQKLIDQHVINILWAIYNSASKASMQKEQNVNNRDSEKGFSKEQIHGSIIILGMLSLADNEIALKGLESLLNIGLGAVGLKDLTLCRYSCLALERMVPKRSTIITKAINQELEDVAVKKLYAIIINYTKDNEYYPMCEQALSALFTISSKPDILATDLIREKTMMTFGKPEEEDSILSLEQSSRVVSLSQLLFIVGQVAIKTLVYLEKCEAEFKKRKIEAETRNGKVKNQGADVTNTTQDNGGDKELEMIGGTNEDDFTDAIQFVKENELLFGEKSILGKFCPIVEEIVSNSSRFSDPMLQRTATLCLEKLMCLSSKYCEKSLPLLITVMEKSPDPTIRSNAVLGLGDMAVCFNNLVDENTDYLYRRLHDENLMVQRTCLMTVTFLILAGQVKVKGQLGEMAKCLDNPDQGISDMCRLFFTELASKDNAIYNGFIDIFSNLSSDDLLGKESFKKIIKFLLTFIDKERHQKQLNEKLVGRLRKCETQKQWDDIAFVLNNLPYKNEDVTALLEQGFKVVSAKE

binding result [1]: binds
binding result [2]: binds
B1: Brn1 (S. cerevisiae condensin kleisin subunit) (natural protein)
chain: MTTQLRYENNDDDERVEYNLFTNRSTMMANFEEWIKMATDNKINSRNSWNFALIDYFYDLDVLKDGENNINFQKASATLDGCIKIYSSRVDSVTTETGKLLSGLAQRKTNGASNGDDSNGGNGEGLGGDSDEANIEIDPLTGMPISNDPDVNNTRRRVYNRVLETTLVEFETIKMKELDQELIIDPLFKKALVDFDEGGAKSLLLNTLNIDNTARVIFDASIKDTQNVGQGKLQRKEEELIERDSLVDDENEPSQSLISTRNDSTVNDSVISAPSMEDEILSLGMDFIKFDQIAVCEISGSIEQLRNVVEDINQAKDFIENVNNRFDNFLTEEELQAAVPDNAEDDSDGFDMGMQQELCYPDENHDNTSHDEQDDDNVNSTTGSIFEKDLMAYFDENLNRNWRGREHWKVRNFKKANLVNKESDLLEETRTTIGDTTDKNTTDDKSMDTKKKHKQKKVLEIDFFKTDDSFEDKVFASKGRTKIDMPIKNRKNDTHYLLPDDFHFSTDRITRLFIKPGQKMSLFSHRKHTRGDVSSGLFEKSTVSANHSNNDIPTIADEHFWADNYERKEQEEKEKEQSKEVGDVVGGALDNPFEDDMDGVDFNQAFEGTDDNEEASVKLDLQDDEDHKFPIRENKVTYSRVSKKVDVRRLKKNVWRSINNLIQEHDSRKNREQSSNDSETHTEDESTKELKFSDIIQGISKMYSDDTLKDISTSFCFICLLHLANEHGLQITHTENYNDLIVNYEDLATTQAAS
